Laboratory results reported in patent US20160168210A1, “DERIVATIVES OF COLLAGEN-BINDING HAIRPIN PEPTIDES” (NATIONAL RESEARCH COUNCIL OF CANADA, priority 2012, published 2016).
Entries after “also recorded” stand apart in the source; their conditions may differ. Where no end group is shown, it is not given here.

Legend:
[1] = as reported previously (Blanco 1994; Cochran 2001b); cited from earlier work
[2] = biological target: T1, rat-tail collagen type I (Rattus norvegicus, UniProt P02454+P02466); assay: Collagen binding/responsiveness of peptides by proton NMR and H-15N HSQC spectroscopy; design: rat-tail collagen type I (at 4 mg/ml in 0.02 N acetic acid); purchased BD Bioscience; host or cells: rat tail (tissue-derived); conditions: for NMR perturbations after collagen gelation (polymerization); reversibility of collagen binding: before vs after collagen gelation; for response to / binding of collagen (NMR spectral perturbations): peptide free in solution vs in the presence of collagen
Method: Rat collagen hydrogels were prepared using rat-tail collagen type I (at 4 mg/ml in 0.02 N acetic acid) from BD Bioscience. A volume of 200 μL of the concentrated collagen solution was mixed with an equal volume of a buffer solution that was 400 mM in Tris-HCl and 400 mM in NaCl with a pH of 7.6 and with 50 μL of deuterated water (D2O). The sample mixture was transferred to an NMR tube followed by gentle mixing under agitation using a Thermolyne™ Max Mix-II apparatus. The NMR tube containing the collagen solution was placed within the RF probe housed in a 500 MHz super-conducting magnet (Bruker Avance-500 NMR spectrometer). The probe and sample bulk temperature was kept at 277 K for 3 hours and then elevated to 310 K at a rate of 1 degree/10 min to enable fibril alignment during a slow process of collagen gelation under the influence of the magnetic field (Ma 2008). The degree of fibril alignment of the collagen hydrogels was determined by use of deuterium NMR spectroscopy of the added D2O as described (Ma 2008). […]
Randomly-deposited collagen (hydrogel) matrix was prepared following the same procedure as above for partially aligned hydrogels, except that the RF probe and the NMR tube (or test tubes) containing the collagen solution were placed outside the magnetic field. Peptides containing collagen-binding hairpins were introduced into the hydrogels in two ways, the first with the collagen stock solution diluted (50:50 in volume ratio) by the buffer of 400 mM in Tris-HCl and 400 mM in NaCl at pH 7.6 containing the peptides of interest (i.e. for FIGS. 1A & 1D), which gelates in the presence of the added peptide. Alternatively, peptides in an appropriate buffer were introduced to the top of the hydrogel matrix (i.e. for FIGS. 1B & 1C) preformed in the NMR tube (or test tube) following the procedures described above. The behavior of the peptides in the hydrogels was followed by use of NMR H-^15N HSQC spectra for ^15N-labelled peptides (FIG. 1) and/or by use of one-dimensional proton NMR spectroscopy (FIG. 2).
(§1) Deuterium NMR spectroscopy studies of collagen responsiveness (and/or binding) for each peptide were carried out using a volume of (400-X) μL of a peptide dissolved in pure water mixed with 50 μL of a 10×PBS (phosphate-buffered saline) supplemented by sodium phosphate to a final concentration of 50 mM, with 50 μL of deuterated water (D2O) to form the reference sample (where X=0), or the peptide-collagen complex with X μL of rat-tail collagen type I (at 3.6 to 4 mg/ml in 0.02 N acetic acid from BD Bioscience) adjusted to achieve the desired final concentration of collagen. The pH value of the reference peptide samples was adjusted to match the pH of the final peptide-collagen complex in order to facilitate NMR spectral comparison. The peptide-collagen solutions were also subjected to gelation under magnetic field guidance followed by the measurement of fibril alignment (Ma 2008) as a semi-quantitative indication of peptide-collagen binding. Deuterium coupling constants measuring the degree of collagen fibril alignment were reduced by more than 1.0 Hz for MH2-wZIP4, by less than 0.5 Hz for MH2-wZIP6 and MH2-wZIP5, which parallel those observed for trpzip4, trpzip6, trpzip5 and the gb1 peptide (see Example 4). As a comparison, a solution of rat collagen at a concentration of 1.8 mg/ml in 200 mM Tris-Cl/200 mM NaCl at pH 7.6 formed a partially-aligned hydrogel with a deuterium coupling constant (Ma, 2008) of 2.5 Hz, while a solution of rat collagen at a concentration of 3 mg/ml in PBS (137 mM NaCl/2.68 mM KCl/10.1 mM Na2HPO4/1.76 mM KH2PO4) supplemented with Na2HPO4 to achieve a final concentration of 50 mM at pH 7.4 formed a partially-aligned hydrogel with a deuterium coupling constant of 4.8 Hz. A solution of human collagen at a concentration of 2.23 mg/ml in PBS supplemented with Na2HPO4 with a final concentration of 50 mM at pH 7.4 formed a partially-aligned hydrogel with a deuterium coupling constant of 1.3 Hz.

[3] = biological target: T1, rat-tail collagen type I; assay: Collagen fibril alignment of hydrogels formed from peptide-collagen solutions, deuterium NMR (deuterium coupling constant); format: binding; design: rat-tail collagen type I (at 4 mg/ml in 0.02 N acetic acid); purchased BD Bioscience; host or cells: rat tail (tissue-derived)
Method: Rat collagen hydrogels were prepared using rat-tail collagen type I (at 4 mg/ml in 0.02 N acetic acid) from BD Bioscience. A volume of 200 μL of the concentrated collagen solution was mixed with an equal volume of a buffer solution that was 400 mM in Tris-HCl and 400 mM in NaCl with a pH of 7.6 and with 50 μL of deuterated water (D2O). The sample mixture was transferred to an NMR tube followed by gentle mixing under agitation using a Thermolyne™ Max Mix-II apparatus. The NMR tube containing the collagen solution was placed within the RF probe housed in a 500 MHz super-conducting magnet (Bruker Avance-500 NMR spectrometer). The probe and sample bulk temperature was kept at 277 K for 3 hours and then elevated to 310 K at a rate of 1 degree/10 min to enable fibril alignment during a slow process of collagen gelation under the influence of the magnetic field (Ma 2008). The degree of fibril alignment of the collagen hydrogels was determined by use of deuterium NMR spectroscopy of the added D2O as described (Ma 2008).
as §1, with “A solution of human collagen at a concentration of 2.23 mg/ml in PBS supplemented with Na2HPO4 with a final concentration of 50 mM at pH 7.4 formed a partially-aligned hydrogel with a deuterium coupling constant of 1.3 Hz.” left out

[4] = biological target: T2, rat-tail collagen type I (rat, UniProt P02454 152-1207; P02466 86-1125); assay: cell-based or functional assay
[5] = biological target: T2, rat-tail collagen type I; assay: NMR spectroscopy (Table 4 footnote)

T2 sequence (P02454 152-1207 limits assumed, chain 1 of 2): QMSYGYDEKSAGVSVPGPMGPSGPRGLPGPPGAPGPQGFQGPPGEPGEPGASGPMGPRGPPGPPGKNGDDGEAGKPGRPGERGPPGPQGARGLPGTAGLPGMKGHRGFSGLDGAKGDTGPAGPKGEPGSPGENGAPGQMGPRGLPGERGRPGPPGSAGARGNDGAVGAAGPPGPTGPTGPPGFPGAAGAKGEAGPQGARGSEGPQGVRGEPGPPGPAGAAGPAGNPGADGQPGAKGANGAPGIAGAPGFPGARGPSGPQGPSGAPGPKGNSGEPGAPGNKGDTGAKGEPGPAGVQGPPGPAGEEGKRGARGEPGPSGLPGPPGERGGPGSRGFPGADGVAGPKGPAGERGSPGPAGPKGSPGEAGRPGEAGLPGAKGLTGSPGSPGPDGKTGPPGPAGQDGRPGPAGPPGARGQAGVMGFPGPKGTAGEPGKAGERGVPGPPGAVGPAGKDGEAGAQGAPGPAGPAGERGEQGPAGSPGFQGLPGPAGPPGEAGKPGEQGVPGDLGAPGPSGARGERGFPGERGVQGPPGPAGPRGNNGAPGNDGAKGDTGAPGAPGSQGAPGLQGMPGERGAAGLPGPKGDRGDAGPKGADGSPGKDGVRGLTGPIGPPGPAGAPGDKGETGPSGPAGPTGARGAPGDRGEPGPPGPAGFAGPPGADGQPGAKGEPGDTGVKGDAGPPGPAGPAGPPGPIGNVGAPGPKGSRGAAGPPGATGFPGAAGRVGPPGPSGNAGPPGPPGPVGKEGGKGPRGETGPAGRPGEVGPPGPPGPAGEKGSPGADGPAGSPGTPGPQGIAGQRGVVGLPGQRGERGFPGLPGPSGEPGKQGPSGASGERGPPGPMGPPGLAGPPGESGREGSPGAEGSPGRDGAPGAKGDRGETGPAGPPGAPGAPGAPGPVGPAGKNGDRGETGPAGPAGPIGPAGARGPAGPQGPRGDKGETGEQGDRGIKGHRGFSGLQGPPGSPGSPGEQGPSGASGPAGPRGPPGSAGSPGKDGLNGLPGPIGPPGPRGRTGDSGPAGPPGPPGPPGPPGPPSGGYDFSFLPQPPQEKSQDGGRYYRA
T2 sequence (P02466 86-1125 limits assumed, chain 2 of 2): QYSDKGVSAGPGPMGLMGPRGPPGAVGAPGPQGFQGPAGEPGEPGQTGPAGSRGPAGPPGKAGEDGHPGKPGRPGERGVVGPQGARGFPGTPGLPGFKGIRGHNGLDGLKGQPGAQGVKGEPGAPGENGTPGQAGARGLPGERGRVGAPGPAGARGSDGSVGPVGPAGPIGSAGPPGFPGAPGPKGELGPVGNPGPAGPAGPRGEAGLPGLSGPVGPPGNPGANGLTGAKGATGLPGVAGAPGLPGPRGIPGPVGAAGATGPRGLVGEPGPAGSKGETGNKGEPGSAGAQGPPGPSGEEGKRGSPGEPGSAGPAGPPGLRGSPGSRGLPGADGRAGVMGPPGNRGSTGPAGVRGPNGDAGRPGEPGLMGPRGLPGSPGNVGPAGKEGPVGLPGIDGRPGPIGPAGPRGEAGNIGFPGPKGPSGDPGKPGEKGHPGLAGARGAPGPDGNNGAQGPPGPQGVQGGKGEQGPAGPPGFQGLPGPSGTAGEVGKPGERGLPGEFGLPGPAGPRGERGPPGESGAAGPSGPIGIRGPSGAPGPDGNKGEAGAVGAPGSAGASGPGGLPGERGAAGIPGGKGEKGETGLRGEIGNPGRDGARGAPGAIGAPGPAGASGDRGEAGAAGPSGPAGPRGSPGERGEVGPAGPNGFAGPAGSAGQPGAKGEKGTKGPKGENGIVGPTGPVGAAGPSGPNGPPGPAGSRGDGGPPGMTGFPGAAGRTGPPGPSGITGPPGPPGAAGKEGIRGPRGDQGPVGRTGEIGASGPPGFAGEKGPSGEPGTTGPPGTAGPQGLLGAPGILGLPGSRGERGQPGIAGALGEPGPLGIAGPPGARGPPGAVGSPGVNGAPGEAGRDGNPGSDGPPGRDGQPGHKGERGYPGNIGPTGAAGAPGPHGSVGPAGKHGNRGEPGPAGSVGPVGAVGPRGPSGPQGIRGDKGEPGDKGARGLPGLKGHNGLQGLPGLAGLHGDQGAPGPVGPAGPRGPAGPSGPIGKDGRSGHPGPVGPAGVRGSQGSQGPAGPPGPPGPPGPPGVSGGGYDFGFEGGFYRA
T1 sequence (P02454 152-1207 limits assumed): as the sequence (P02454 152-1207 limits assumed, chain 1 of 2) above
T1 sequence (P02466 86-1125 limits assumed): as the sequence (P02466 86-1125 limits assumed, chain 2 of 2) above

GEWTWDDATKTWTVTE (GEWTWDDATKTWTVTE-NH2) [trpzip6, reference compound]
Tm [1]: about 45 °C
NMR perturbations after collagen gelation (polymerization); reversibility of collagen binding [2]: revert toward those of the free peptides after collagen polymerization
response to / binding of collagen (NMR spectral perturbations) [2]: responded to collagen; also recorded: respond to the presence of collagen

GEWTWDDATKTWTWTE (GEWTWDDATKTWTWTE-NH2) [trpzip4, reference compound]
Tm [1]: about 70 °C
response to / binding of collagen (NMR spectral perturbations) [2]: responded to collagen; also recorded: most pronounced changes in response to the presence of collagen; also recorded: dramatically altered by collagen
effect on collagen gelation and degree of collagen alignment [3]: significantly reduced degree of collagen alignment

GEWTYDDATKTFTVTE (gb1 - does not bind collagen) [reference compound]
Tm [1]: about 7 °C
response to / binding of collagen (NMR spectral perturbations) [2]: no response to collagen; also recorded: little binding capacity; also recorded: does not bind collagen
effect on collagen gelation and degree of collagen alignment [3]: remained similar with or without the peptide

GEWTYDDATKTFTWTE (GEWTYDDATKTFTWTE-NH2) [trpzip5, reference compound]
Tm [1]: about 43 °C
NMR perturbations after collagen gelation (polymerization); reversibility of collagen binding [2]: revert toward those of the free peptides after collagen polymerization; also recorded: reverts to a greater extent as compared to trpzip6
response to / binding of collagen (NMR spectral perturbations) [2]: responded to collagen; also recorded: respond to the presence of collagen

IRFDTGEWTWDDATKTWTWTEGDFEEIPEEYLQ (MH2-wZIP4 - molecule of Formula (I))
NMR perturbations after collagen gelation (polymerization); reversibility of collagen binding [2]: no dramatic impact on resonance perturbations
NMR perturbations / release after collagen degradation by a collagenase ([2]; collagenase treatment): releasable by the collagenase; also recorded: highly sensitive to the treatment of a collagenase
entrapment in collagen hydrogel ([2]; diffused into pre-aligned collagen hydrogels): greatly-reduced entrapment
response to / binding of collagen (NMR spectral perturbations) [2]: most pronounced proton NMR spectral changes; also recorded: highest capacity of binding unpolymerized soluble collagen
effect on collagen gelation and degree of collagen alignment [3]: most pronounced interference with hydrogel formation by collagen
reduction of deuterium coupling constant measuring the degree of collagen fibril alignment ([3]; gelation under magnetic field guidance): more than 1.0 Hz

IRFTDGEWTWDDATKTWTWTEGDFEEIPEEYLQ [MH2-wZIP4]
reduction of the deuterium coupling constant measuring the degree of collagen fibril alignment [4]: > 1 Hz

GEWTYDDATKTFTWTE [MH2-wZIP5]
reduction of the deuterium coupling constant measuring the degree of collagen fibril alignment [4]: < 0.5 Hz

GEWTWDDATKTWTVTE [MH2-wZIP6]
reduction of the deuterium coupling constant measuring the degree of collagen fibril alignment [4]: < 0.5 Hz

SYTWEGNKWTYK [Y2Y11-trpzip1]
binding result [5]: no binding

SVTWENGKWTVK [W4W9-trpzip2]
binding result [5]: no binding

SYTWENGKWTYK [YWWY-trpzip2]
binding result [5]: no binding
